Results published in publication PMC3673938, “Two Distinct Calmodulin Binding Sites in the Third Intracellular Loop and Carboxyl Tail of Angiotensin II (AT1A) Receptor” (PLoS ONE, 2013).

Tests used:
AT1A receptor-eYFP = AT1A receptor-eYFP (UniProt P25095); experiment: FRET or BRET; BRET in living HEK293 cells stably expressing AT1A receptor-eYFP and transiently RLuc-CaM, CaM-RLuc or RLuc; 5 µM coelenterazine; ratio 525 nm/460 nm; with or without W7 (20 min) and/or 100 nM Ang II
GST-ATctN(297–324)F309A = GST-ATctN(297–324)F309A (UniProt P25095); experiment: pull-down; 50 pmol GST-fusion protein with purified bovine brain CaM (50 pmol) in 250 µl of 100 mM Tris-HCl pH 7.5 with 0.1 mM CaCl2; 4°C; glutathione-sepharose 4B beads; immunoblot with anti-CaM; for the mutants density of CaM against loaded GST-fusion protein
GST-ATctN(297–324)F309A, sequence (P25095 297-324 F309A): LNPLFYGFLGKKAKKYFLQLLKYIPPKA

GST-ATi3N(213–234)W219A = GST-ATi3N(213–234)W219A (UniProt P25095); experiment: as above
GST-ATi3N(213–234)W219A, sequence (P25095 213-234 W219A): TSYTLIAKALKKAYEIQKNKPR

GST-ATctN(297–324)F313A = GST-ATctN(297–324)F313A (UniProt P25095); experiment: as above
GST-ATctN(297–324)F313A, sequence (P25095 297-324 F313A): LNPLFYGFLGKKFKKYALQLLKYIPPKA

GST-ATct(297–359) = experiment: pull-down; competition: 2 pmol GST-fusion protein incubated with bovine brain CaM (2 or 10 pmol) for 30 minutes in 20 mM Tris-HCl, 70 mM NaCl, 0.1 mM CaCl2, pH 7.5, then 2 pmol Gβγ for 1 hour; glutathione-sepharose 4B beads; immunoblot with anti-Gβ
GST-ATi3(213–242) = experiment: as above
GST-ATi3(213–242), sequence (P29754 213-242): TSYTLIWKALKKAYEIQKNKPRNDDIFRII

AT1A receptor-eYFP, sequence (P25095 whole entry, the tested form may be a part): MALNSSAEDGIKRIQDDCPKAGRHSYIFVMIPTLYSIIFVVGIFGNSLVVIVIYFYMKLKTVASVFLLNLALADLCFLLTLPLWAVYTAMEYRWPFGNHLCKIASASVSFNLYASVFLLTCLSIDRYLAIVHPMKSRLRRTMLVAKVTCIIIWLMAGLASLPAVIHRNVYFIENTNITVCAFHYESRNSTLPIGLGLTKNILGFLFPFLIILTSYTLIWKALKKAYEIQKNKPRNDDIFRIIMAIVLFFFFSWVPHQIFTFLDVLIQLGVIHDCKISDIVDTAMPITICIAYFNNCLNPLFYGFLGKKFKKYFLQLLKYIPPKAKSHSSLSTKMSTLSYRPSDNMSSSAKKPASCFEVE

BRET ratio with the CaM inhibitor W7, % of untreated (% of non-W7-treated) (AT1A receptor-eYFP) | relative binding efficiency, % of wild type (% of wild type) (GST-ATctN(297–324)F309A) | relative binding efficiency, % of wild type (% of wild type) (GST-ATi3N(213–234)W219A) | relative binding efficiency, % of wild type (% of wild type) (GST-ATctN(297–324)F313A) | Gβγ bound to GST-ct with 2 pmol CaM, % of no CaM (GST-ATct(297–359)) [%] | Gβγ bound to GST-ct with 10 pmol CaM, % of no CaM (GST-ATct(297–359)) [%] | Gβγ bound to GST-i3 loop with 2 pmol CaM, % of no CaM (GST-ATi3(213–242)) [%] | Gβγ bound to GST-i3 loop with 10 pmol CaM, % of no CaM (GST-ATi3(213–242)) [%] | Substance
40 |  |  |  |  |  |  |  | CaM-RLuc (from UniProt P0DP23 1-149) (natural protein)
 | 29 | 32 | 22 | 73 | 34 | 77 | 60 | calmodulin purified from bovine brain (from UniProt P62157 1-149) (natural protein)
